Paper PMC4597128

Target: Helicobacter pylori HP0231 (DsbK) (Helicobacter pylori)
Assay: SEC; purified His6-tagged proteins on a calibrated ENrich SEC70 column (Bio-Rad), absorbance at 280 nm; calibrated with Gel Filtration Standard (Bio-Rad)

stoichiometry N: 2
Substance: Helicobacter pylori HP0231 (DsbK) (enzyme)
